Assay: soluble on expression in E. coli; label from the status in PepcDB or PDB records
With “HPIFQRDGDDLHCEVPVRISQAALGDIVRVATLDGEAEIRIPAETQSGKLFRLRGKGVRSVRSRTEGDLYCRIVVETPVNLTAEQRKLLEQFEMTFAGEDARK” the “soluble on expression in E. coli” value was “not soluble”. For “MSLVLYRKLKKAKSLEEIKNTFKNLTKSISSLVMRGMHFYDLSNILTEIYDYLVVKVIEMEKERFEREWGKLPSFAWVHMGSSARKEQVIATDQDNAIVHEGDGEGLSQFAESVNNALDYVGIPKCRGGYMAMNWCKSVEEWKSVFSEWFIKLTPDNLRFLSVFLDLRVIYGDEKLCKELIEHIKREHTSQSLRYLAYDATIAEPPLGLFGLRMKKEIDLKMNGIYPIVNGVRVLALEHGLIEVTNTRERLEELKEAHVMDADLAESLKETYEFLQDLRLRLQAKEVVEGKKADNVIKVSEIDRIEAFVLKEGFKVIKKFQNFLKGHYSIERGLEGHHHHHH”, the “soluble on expression in E. coli” value was “soluble”. With “MSSQKSGIVVQSDETHILISSSHDIFVADPDQNTKLGDSVSFTTWDIANNLKRASDIKPRNQIVESVVYEQDQSLRLRLKILGFYDFTKSQQRVFRTDFITQVREGEKFKYLPKNAFFGRQITVKLTHQKNSIVWELDEFEEPKEKTYSLIGQIYYTDFSDAYVYVPGYPEPFVISKETNFSRSEEGTWVKFLACTATASVKKSEGFQFLEKDLLDTNRNREIAIKCSRKDGIIQSHHFEKVIDKDNRLADYGVLSDFENVLIYVKVSMEGVSKKPSLILGQFQTSFNVNPTLTRDQKEALDPPKRILKKQSSLPREGSSRKQVTQIQNLSRKIETGPRINFLPNFNNQDHGSEFFSDNEEMDLVPPLENSHLRVDPVPVPIEPSIQQNRTTTTAPISAPARRISSNESRRENPNSQPAPSKMQNVFREDPEAEYKRPERSNADNDETSSTISACSSKSRIVRENPDANYERPARRLPTPPLEANDNLEHQSHDSSSTDGLRDTSPVGNNTNPRSGSPSCHSDTHSSVSSSLWITTINSSKDLEFVKNEYIKLWIEDQASQKEMKNLKAKRIELKMKQKKLKAELNDEKMKNQKLEEAAFNDRKEKAELKKKVSNLEQSAQNTQRTLQNQTRELNLYSTNRSWLRKEFNSTNLLEHLRRNYHDLSKRLEQFAFN” the “soluble on expression in E. coli” value was “not soluble”. With “MFPVVDDVKAKELGLEVVYNLELPLRPERQIYRNLEDLLPKDVVEKVGRLDIVGDIAIISIPDELMPRKGVIVEAIRKLYPKIKVIARRGFHTGVYRVRRLEVIWGENRLQTIHKENGVLLKIDLSKVFFNPRMKGERYRLAQLIKDGERILIPFAGVLPYALVIARFRKVDIVAVELNDEAVKLAQENVLLNKDKLKGKISIIHGDVFDVLPKLPSFDRVISPTPKGVDALALTLSKAKRFLHYYDFIHEDKLGEFKEKIIKECQKQGKECKVKVRKVADYKPHVYKVCADIEIK” the “soluble on expression in E. coli” value was “soluble”. With “MSAASTTSTPAAAAVAPQQPESLYRVVQTLGEGAFGEVLLIVNTKNPEVAAAMKKINIANKSKDFIDNIRKEYLLQKRVSAVGHDNVIRMIGMRNDPQFYYLFLEYADGGELFDKIEPDCGMSPVFAQFYFKQLICGLKFIHDNDVVHRDIKPENLLLTGTHVLKISDFGMATLYRNKGEERLLDLSCGTIPYAAPELCAGKKYRGPPVDVWSSGIVLIAMLTGELPWDRASDASQSYMGWISNTSLDERPWKKIDVRALCMLRKIVTDKTDKRATIEQIQADPWYQHNFGQVETPNGRPLKRARNNDENITCTQQAECSAKRRHLETPNEKSTLAERQNASFSQPTKTEDLLLTQHIDMSQTNSVRKKPSEIGGFLAKISNFSVNLLQRMVCRMTRFCVVTDIRSTYQKVARASEHAGFGVRETDDYRLLVTWREVSMMVSLYTMGDIPDKPRVMVDFRRSRGDGIQFKKMFMDVRNRMHEWICTDGNNWLANLGYVPRNPQIVNGGGVNVEHSASSINVDV” the “soluble on expression in E. coli” value was “not soluble”. With “MDTLGLVESRSIAAGVNLADGMVKVAQVELVRAGTICSGRYFICLGGDRQAVQTAVSHAEQSGSALAGSYVISGVSPQVLAVLKKSVQPGTPGALGVVECRTVSAGIAAADAAVKRSGISLLRLVTGQGINGKSYFVFSGDVASVQEAADAAKTALGRHLIESVVIARPDASVVRALTSGVR” the “soluble on expression in E. coli” value was “not soluble”. For “MAHHHHHHMYAPFAAQEGNGGMFDFFFSAAASETLCASSAGSNSNNTGIGHGGGEAANGFNAASAGPLVENNNSNDDRVGRLNFDFASFFFQGGQSGAYDDSGLDAAGRGDDGSGADARRSEHYIQRGSADAADSTGKGVLPALGFFFPEDQVAPAAAGGSLILPPTSWCVESAAGADNRYSPPQVQPQNPAAVRETAASLKGDEAAHTVAPPGAALTVLKSDPTHIAPVDQTLVQRLPCEHASSSAMDHECSLAAALAAAPSSLGLLSDEESQRTTVPLSRTSDAEEAKCDETPTRLVAGNSCPEPEARDSSVAEGVAEEDAMPAPTHSRQPPPRVPVVSLPRSSHPPGAAPAGAVVTPTPPSPRQPPAPLTVSTSTPYRPEVPLLIGPAGHDATSVALSKAIGEAEEVWAHRLDMVPITCPERRDAEMGMSCSGFTPSSSSDAVFLAEVAQLQQQTARLTEESARSVTSLQVLTSDLLRILGPHAALSSFAGEQYAGTPLVHLPWALIAVLEGLLNDDADAEEKAEGQLVAPRPSSEGVESGSSGVHDA”, the “soluble on expression in E. coli” value was “not soluble”. For “MSGAAADGIDDRDIPKQEFLDAAFNGDIDKIDGLLRDKKVHIDSVDDDQVTALHIAAAMGNNKLVVRLLDYGANIHAVNHLGMTAYHYAAREGKLAVLDTLMQRGASKNQTTALGVTALTLACAGGHADVVRRLIRISNETPRSKQSLAPTPLIVATCSKSPQICSYLADFRVNLDESMKNLGNLTALSMAIVCTPGVYMVRTLIDLGASVNKKGLGDKTAEELAIMLNRKDLIHFFNEKKSYRSRMNADSDVRKEIKNDHIIERELGAPAQNGVSPLMYATTVRSINSAKHLVLHRDSDVNMRDNLHITSLQIASLLRVDDIIPLLLQRRADVTVVNKYGSTAYDLFLLSCDFLEPGQLRGQLHCHRPIDSKSNLNSSSSNIYKALRSQGILTKVGSQIGINSAKIELIEPKHWLAAKTKYQPAKLRNNYKFASVEDILKSCKVAKRPETNECDNETEAIREYMEECQSFAVFCFSDFYGERENNKATIPDYYDKAQDNAKRYAYLRMDGLDKKNSGRQENVSKLIPVRPRKDSIEREYRKPRNIALVDSPSQSQMRTTPRMLKKRDTDYFSAQAGRARASSTSLQVPTVTVTRQRHVTSPVIEDMIWNHFVRRGKNELMRVLQAAEIDKHSFFSLQQKDLEAMNSYTPENMKLIEDIQTAILSRSL”, the “soluble on expression in E. coli” value was “not soluble”. For “MQVDDWIVGLEVEIFTFDGKEYRGIVYTYDADANCVVLARKSQDSLKSDLRILKASLVKNINVLGRSNVDQLPQQLSPLNLEALKMREEQALQKARKDLARTGVGVSQQAQEIFDALCKTLPCQWEEDSIVIFENIKLKKPYRVEDLEGSEIEAVNRVKVVLENELQKLQRRNT”, the “soluble on expression in E. coli” value was “soluble”. With “MIAITGASGQLGRLVIAQLLEKVPASDIVALVRDVNKVADLSAKGVQVKAADYNQPEALAFALQGVDKVLLISSSEVGQRAAQHRNVIEAAVKAGVKLVAYTSLLHADKSPLALAEEHRQTEALLKDSGLPHVLLRNGWYTENYAASIPAALEHGVFIGSAGEGKITSATREDFAAAAVAVLTQEGQAGKVYELAGDEPYTLVELAAEISKQSGKSIGYQNLSGAEFTAALVSAGLPDVFAQIIADSDVGASKGGLFDGGKHLSQLIGRPTTPLSAVVKATLKLEHHHHHH” the “soluble on expression in E. coli” value was “not soluble”. With “MGSDKIHHHHHHMSNLQKVIVFGASGFLGEHIIKSLISENWDVYAAVRTKPESSTDGFNQTQVTYYEGDLEDQKYIQDAIAGMDAIIFSAGCTWKSDLEISEYYRRNVQITKNFFTALGDRPNVRIVYTSSMSVIAGSKSDYIFFEDSDRSQVSQNQLSPYDLAKIECEQIALDYAQRGNNLVILNPGNMLGPGVFNHSKITTSILVLWFCQKQFPFYINGGHSYCDVRDVAKAHVAALTRGRSGERYIVAGDNLDMASISSLLVKMTGFKMPQQLPASGVYLLSLLLESLSLLSFRLFKNPYHPDFVKSFALHYYANSQKAIKELAYNITPIETTLIDTIKYFGKRELLSEDLNFFALMTHSNIQSLIYLRQLASQHTFSQFLLSKISQIYGICQSNLSLNNVLDNLVNHSKFNIKTGKFQPDKTKCQEDLKSINQLFEYLYFASNDFLSEVI” the “soluble on expression in E. coli” value was “not soluble”. For “LRNATQRMFEIDYSRDSFLKDGQPFRYISGSIHYSRVPRFYWKDRLLKMKMAGLNAIQTYVPWNFHEPWPGQYQFSEDHDVEYFLRLAHELGLLVILRPGPYICAEWEMGGLPAWLLEKESILLRSSDPDYLAAVDKWLGVLLPKMKPLLYQNGGPVITVQVENEYGSYFACDFDYLRFLQKRFRHHLGDDVVLFTTDGAHKTFLKCGALQGLYTTVDFGTGSNITDAFLSQRKCEPKGPLINSEFYTGWLDHWGQPHSTIKTEAVASSLYDILARGASVNLYMFIGGTNFAYWNGANSPYAAQPTSYDYDAPLSEAGDLTEKYFALRNIIQKFEKVPEGPIPPSTPKFAYGKVTLEKLKTVGAALDILCPSGPIKSLYPLTFIQVKQHYGFVLYRTTLPQDCSNPAPLSSPLNGVHDRAYVAVDGIPQGVLERNNVITLNITGKAGATLDLLVENMGRVNYGAYINDFKGLVSNLTLSSNILTDWTIFPLDTEDAVRSHLGGWGHRDSGHHDEAWAHNSSNYTLPAFYMGNFSIPSGIPDLPQDTFIQFPGWTKGQVWINGFNLGRYWPARGPQLTLFVPQHILMTSAPNTITVLELEWAPCSSDDPELCAVTFVDRPVIGSSVTYDHPSKPVEKRLMPPPPQKNKDSWLDHV”, the “soluble on expression in E. coli” value was “soluble”. In the case of “MIYSRSKLPSEGEILIATVKQVFDYGSYVSLDEYGGLQAFLPWSEVSSKWVKNIRDVLKENRKVIVKVIRVDRRKGTVDVSLKKVTDDERRKKNLQWKKIQRLDKILELVSQKLKLSEKDAWEQVAWKLEAKYGDPITAIEKAVKEGEKILIDAGVPEIWVKPLLEEASKHAEERKVKMSGLITVRTNEPLGVEKIKEVISKALENIEQDYESLLNIKIYTIGAPRYRVDVVGTNPKEASEALNQIISNLIKIGKEENVDISVVKK”, the “soluble on expression in E. coli” value is reported as “soluble”. For “MKKMHVESEFAPLRSVVLAQSQFCLPDKFDEADTTFLTEENARLTQNNEGRDLADFAPEQQVRWEKEKEVMQGVLESYGVEVFRPRLLTTYEKEHGKELGVGYSNFFSRDPFFTIGNLLIEGNLRFQHRRQEILPIRPIIQQWTQEAEGYYFAAPQPDISEGALSEAGPFIEGGDVLVLGKTIFVGYSGLASNLAGIQWLANMIGHFGYEVVPVRLHPHILHLDCALSLLREGLMIVCEEAFLDGLPAQLANWEKIHVTLQEAAYLVTNGLPLNEETYITDQSFTTLIPQIEAKGIKVEAIDYHVSRMLGGSFRCTTQALIRE”, the “soluble on expression in E. coli” value was “not soluble”. With “MSLSKRNKPQESKEFGFQALKINGTYVSTDIMKEERNKFFEKYKRNADVLRMNDHERNDMLLDQVIERLLLEDYVNNKSGVTATDSEVEDYINRFIKPRYGDSLGTFMSSQGYTNEEEMKAGIKEYILKHKALYKAAKEKNVTLTEQELDEGYEKHKIQNKKVDIRHIFISSQERGKEEAKKLADEIYNRLKNNEDFETLAKQYSDDEKTKESGGVITELRAGFNEAVFDNAVFTAEAGQLLEPIEVARGYEIVYVDKVTEGHHHHHH” the “soluble on expression in E. coli” value was “soluble”. In the case of “MGSDKIHHHHHHMKIDDKTGLVLEGGGMRGVFTCGVLDYMMDKKVWFPYGVGVSAGACNGLSYMSRQRGRAKFSNIDLLEKYHYIGIKHLWRKHSILDQELLYEHFPKEILPYDYKTYAENPARFEMVTTNCITGRACYLEEKHDPRRIIAIAKASSSLPYVCPIAYVDGEPMLDGGIVDSIPVLRAIEQGFDKNVVVLTRNRGYRKKGKDMKIPHFIYKKYPRLRVVLSKRCRIYNEQLDLVEQLEDKGRIVVIRPEKPMEVDRIETDIKKLTDLYEEGYACAKKMFEEKRILQK”, the “soluble on expression in E. coli” value is reported as “not soluble”. For “MSLCRWAAYHGTPIFLEDVISRPGHSLIAQSAHAEECKTATNGDGFGVAWYDARPEPGLYRDVYPAWSDPNLRAVAHHVRSGLFLSHVRASTGSCISRNNCHPFAARRWCFMHNGQVGGFEAFRKQADMAIADEFYTYRKGSTDSEVLFLLALSEGLEHDPHGALARAIARLEGLSRAHGTTPHMRLSAAFSDGQTLYAARYSSDHIAPSVYYRYSHARQGWAVVSEPLETDEGDWTELRPGRMLTIGAEGAAERDFAPADLGRAAEGHHHHHH”, the “soluble on expression in E. coli” value was “soluble”.

— the DeepSol protein solubility set
